Measurements reported in patent US5811098, “Antibodies to HER4, human receptor tyrosine kinase” (Bristol-Myers Squibb Company, dated 1998).

Key:
[1] = target: T1, p45, HER4 ligand purified from HepG2 conditioned medium (human, UniProt Q02297, 125I-labeled Bolton-Hunter reagent (in the binding and cross-linking assays)); assay: binding of 125I-p45 to CHO/HER4 cell monolayers, 2 h at 4° C, Scatchard analysis (LIGAND program)
T1 sequence: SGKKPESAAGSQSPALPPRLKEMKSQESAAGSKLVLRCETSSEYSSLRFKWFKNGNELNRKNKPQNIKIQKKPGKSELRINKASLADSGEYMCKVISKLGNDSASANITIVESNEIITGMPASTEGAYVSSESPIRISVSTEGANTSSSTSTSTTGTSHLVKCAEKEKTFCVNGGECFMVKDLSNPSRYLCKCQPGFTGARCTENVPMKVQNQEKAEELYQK

HER2/p185erbB2 (human) = HER2/p185erbB2 (human) (human); assay: cell-based or functional assay
HER3/p160erbB3 (human) = HER3/p160erbB3 (human) (human); assay: cell-based or functional assay

Row | Binder | Kd [1] [nM] | EC50 of cytotoxicity, H3396 cells (HER2/p185erbB2 (human)) [µg/mL] | EC50 of cytotoxicity, L2987 cells (HER2/p185erbB2 (human)) [µg/mL] | EC50 of cytotoxicity, SK0V3 cells (HER2/p185erbB2 (human)) [µg/mL] | EC50 of cytotoxicity, H3396 cells (HER3/p160erbB3 (human)) [µg/mL] | EC50 of cytotoxicity, L2987 cells (HER3/p160erbB3 (human)) [µg/mL] | EC50 of cytotoxicity, SK0V3 cells (HER3/p160erbB3 (human)) [µg/mL]
1 | HER4/p180erbB4 (human prototype HER4) (receptor) QSVCAGTENKLSSLSDLEQQYRALRKYYENCEVVMGNLEITSIEHNRDLSFLRSVREVTGYVLVALNQFRYLPLENLRIIRGTKLYEDRYALAIFLNYRKDGNFGLQELGLKNLTEILNGGVYVDQNKFLCYADTIHWQDIVRNPWPSNLTLVSTNGSSGCGRCHKSCTGRCWGPTENHCQTLTRTVCAEQCDGRCYGPYVSDCCHRECAGGCSGPKDTDCFACMNFNDSGACVTQCPQTFVYNPTTFQLEHNFNAKYTYGAFCVKKCPHNFVVDSSSCVRACPSSKMEVEENGIKMCKPCTDICPKACDGIGTGSLMSAQTVDSSNIDKFINCTKINGNLIFLVTGIHGDPYNAIEAIDPEKLNVFRTVREITGFLNIQSWPPNMTDFSVFSNLVTIGGRVLYSGLSLLILKQQGITSLQFQSLKEISAGNIYITDNSNLCYYHTINWTTLFSTINQRIVIRDNRKAENCTAEGMVCNHLCSSDGCWGPGPDQCLSCRRFSRGRICIESCNLYDGEFREFENGSICVECDPQCEKMEDGLLTCHGPGPDNCTKCSHFKDGPNCVEKCPDGLQGANSFIFKYADPDRECHPCHPNCTQGCNGPTSHDCIYYPWTGHSTLPQHARTPLIAAGVIGGLFILVIVGLTFAVYVRRKSIKKKRALRRFLETELVEPLTPSGTAPNQAQLRILKETELKRVKVLGSGAFGTVYKGIWVPEGETVKIPVAIKILNETTGPKANVEFMDEALIMASMDHPHLVRLLGVCLSPTIQLVTQLMPHGCLLEYVHEHKDNIGSQLLLNWCVQIAKGMMYLEERRLVHRDLAARNVLVKSPNHVKITDFGLARLLEGDEKEYNADGGKMPIKWMALECIHYRKFTHQSDVWSYGVTIWELMTFGGKPYDGIPTREIPDLLEKGERLPQPPICTIDVYMVMVKCWMIDADSRPKFKELAAEFSRMARDPQRYLVIQGDDRMKLPSPNDSKFFQNLLDEEDLEDMMDAEEYLVPQAFNIPPPIYTSRARIDSNRSEIGHSPPPAYTPMSGNQFVYRDGGFAAEQGVSVPYRAPTSTIPEAPVAQGATAEIFDDSCCNGTLRKPVAPHVQEDSSTQRYSADPTVFAPERSPRGELDEEGYMTPMRDKPKQEYLNPVEENPFVSRRKNGDLQALDNPEYHNASNGPPKAEDEYVNEPLYLNTFANTLGKAEYLKNNILSMPEKAKKAFDNPDYWNHSLPPRSTLQHPDYLQEYSTKYFYKQNGRIRPIVAENPEYLSEFSLKPGTVLPPPPYRHRNTVV | ~5 | – | – | – | – | – | –
2 | HAR-TX β2, chimeric heregulin-toxin protein (other) MVVKPPQNKTESENTSDKPKRKKKGGKNGKNRRNRSHLIKCAEKEKTFCVNGGECFTVKDLSNPSRYLCKCPNEFTGDRCQNYVMASFYKAEELYKLMAEEGGSLAALTAHQACHLPLETFTRHRQPRGWEQLEQCGYPVQRLVALYLAARLSWNQVDQVIRNALASPGSGGDLGEAIREQPEQARLALTLAAAESERFVRQGTGNDEAGAANADVVSLTCPVAAGECAGPADSGDALLERNYPTGAEFLGDGGDVSFSTRGTQNWTVERLLQAHRQLEERGYVFVGYHGTFLEAAQSIVFGGVRARSQDLDAIWRGFYIAGDPALAYGYAQDQEPDARGRIRNGALLRVYVPRSSLPGFYRTSLTLAGGEAAGEVERLIGHPLPLRLDAITGPEEEGGRLETILGWPLAERTVVIPSAIPTDPRNVGGDLDPSSIPDKEQAISALPDYASQPGKPPREDLK | – | > 2 | > 2 | > 2 | > 2 | > 2 | > 2
